According to paper doi:10.1101/2025.10.27.684894, “Alternative splicing of synaptotagmin 7 regulates oligomerization and short-term synaptic plasticity” (bioRxiv, 2025):

Molecular target: T1, Halo-tagged α-syt7cyto (cytoplasmic domain of synaptotagmin 7 α, immobilised on HaloLink resin) (mouse, UniProt Q9R0N7 38-403)
T1 construct: synaptotagmin 7, α splice variant, cytoplasmic domain; The Halo-tagged construct is not described under DNA constructs; The sentence on syt1-fl says only 'immobilized syt7'; also called immobilized syt7; source: purified Halo-tagged protein; recombinant proteins were expressed in E. coli BL21(DE3)
T1 sequence (Q9R0N7 38-403): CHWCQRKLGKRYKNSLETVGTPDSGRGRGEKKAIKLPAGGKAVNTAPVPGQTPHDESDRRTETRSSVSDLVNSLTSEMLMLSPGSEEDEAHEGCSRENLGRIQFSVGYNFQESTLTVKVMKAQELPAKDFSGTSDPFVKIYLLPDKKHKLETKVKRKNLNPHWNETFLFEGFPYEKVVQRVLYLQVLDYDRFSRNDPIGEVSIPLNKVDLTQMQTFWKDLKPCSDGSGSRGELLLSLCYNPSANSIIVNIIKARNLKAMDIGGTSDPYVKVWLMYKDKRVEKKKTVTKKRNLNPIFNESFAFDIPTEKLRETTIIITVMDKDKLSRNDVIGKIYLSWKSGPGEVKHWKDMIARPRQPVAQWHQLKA
Assay: pull-down; Halo-tagged bait immobilised on HaloLink resin (7 μM bait), prey syt1-fl in DOPC proteoliposomes; 25 mM HEPES pH 7.4, 100 mM KCl, 0.2 mM EGTA or 1.2 mM Ca2+; 1 h at 25 °C; supernatants analysed by SDS-PAGE and Western blot
Details: both partners purified

B1: syt1-fl (full-length synaptotagmin 1, reconstituted into liposomes) (natural protein, rat, UniProt P21707 1-421, looked up)
chain: MVSASHPEALAAPVTTVATLVPHNATEPASPGEGKEDAFSKLKQKFMNELHKIPLPPWALIAIAIVAVLLVVTCCFCVCKKCLFKKKNKKKGKEKGGKNAINMKDVKDLGKTMKDQALKDDDAETGLTDGEEKEEPKEEEKLGKLQYSLDYDFQNNQLLVGIIQAAELPALDMGGTSDPYVKVFLLPDKKKKFETKVHRKTLNPVFNEQFTFKVPYSELGGKTLVMAVYDFDRFSKHDIIGEFKVPMNTVDFGHVTEEWRDLQSAEKEEQEKLGDICFSLRYVPTAGKLTVVILEAKNLKKMDVGGLSDPYVKIHLMQNGKRLKKKKTTIKKNTLNPYYNESFSFEVPFEQIQKVQVVVTVLDYDKIGKNDAIGKVFVGYNSTGAELRHWSDMLANPRRPIAQWHTLQVEEEVDAMLAVKK
notes: synaptotagmin 1, rat cDNA from T. C; Sudhof (Perin et al., 1990); the D374 mutation of that cDNA was corrected to glycine, so residue 374 is G; also called SUMO-syt1-fl; source: E. coli BL21(DE3), purified (with 0.9% CHAPS; cleaved from the beads with SUMO protease), reconstituted into DOPC proteoliposomes
B1 was tested, and the “ratio of binding in Ca2+ to binding in EGTA” value was 1.46 ± 0.15.
